These results are taken from doi:10.1101/2024.01.20.576400 (bioRxiv, 2024).

The test addresses T1, Pwl2 without the signal peptide (residues 22-145) (Magnaporthe oryzae, UniProt G5EI71 22-145).
T1 sequence: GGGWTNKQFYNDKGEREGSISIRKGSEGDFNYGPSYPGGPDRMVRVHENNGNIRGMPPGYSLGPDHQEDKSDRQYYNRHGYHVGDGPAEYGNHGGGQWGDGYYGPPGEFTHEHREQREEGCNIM
The test can be described thus: ITC.

B1: HMA domain of OsHIPP43 (residues 26-101) (domain or fragment)
chain: RPLQTVNIKVKMDCEGCERRVKNAVKSMRGVTSVAVNPKQSRCTVTGYVEASKVLERVKSTGKAAEMWPYVPYTMT
On to B1, for which the affinity, expressed as Kd, was 191 nM and the dH was -67.6 kcal/mol.
